Experimental data taken from the supplement of paper PMC9170038.

system: K4 kissing-loop RNA reporter; assay: apparent KD of K4 kissing-loop reporter; higher = weaker reporter binding; settings: Eterna round: R107; input ligand: arginine 13.2 mM
Experimental: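 RNA-MaP round R107: designed RNA switches with theophylline, tryptophan, arginine or FMN aptamers are transcribed on-chip within common flanks. They are titrated with a labelled K4 kissing-loop RNA reporter in RNA-MaP buffer (100 mM Tris pH 7.5, 80 mM KCl, 4 mM MgCl2), without ligand or with the indicated ligand. Median apparent KD per design.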
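Also: bound reporter read as fluorescence of individual clusters on recovered sequencing chips by microscopy, with normalized cluster intensities fitted with a binding model.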

Sequence | apparent KD of K4 kissing-loop reporter
UUGUAUAGUGGAAGGAGCGCGUGGGCGCAGUGAUGUUGCGCCCGACAUCACUUCAACUUAACGCAGGUAGGUCGCCAUUGUAAUG [Arginine B (Excl) V5] | 88 nM
CCGGCCCGGCCGGAUACCAGUGCGCCGCUGGGAACCGCGGGCCCAGAGUGAUGUUCGGGACACCCUUGGCAGCCGCCUGGGUCGC [#2 Same State - Theophylline B Attempt #24 (HarryS)] | 140 nM
AGCGUCUGAAGAGGAUAUGACCAGUGAUGUUGGUUACUACCUCAAAUUAGUGUCUCGUCAAAAUCGUCAGAAGGCUUCGACGAGC [#09 K4 FMN B Exclusion] | 96.2 nM
CGGAGUGAUGUUCCUUUUAUUAAUUAUUAACGAGGACCGGUACGGCCGCCACUCGAUUUAGCUUUUAUUUAAUGCUUGGAUGUUU [JR_SSTryptoA_Sub003] | 224 nM
CGCGCCCAGCCGGAUACCAGUGACCCGCUGGGAACCGCGGGCCCAGAGUGAUGUUCGGGACACCCUUGGCAGCCGCCUGGGCGAC [#2 Same State - Theophylline B Attempt #8 (HarryS)] | 378 nM
CAUUAAACUCAAACUAUUGGGUUUACGUUCCGAGGACCGGUACGGCCGCCACUCGGUCGAUGCUAUACCAUACGAGUGAUGUUCG [theeternabot_sameState_KL_Trp_A_1] | 452 nM

same assay, conditions: Eterna round: R107; input ligand: none

Sequence | apparent KD of K4 kissing-loop reporter
UGGCGGACGAUCCGGAGUGAUGUUCCGGAUACCAGCAGAAGAGCCUGCCCUUGGCAGCCGUACGACGCUGGGAGAGUCCGGCGUC [Soteina] | 81.1 nM
UGACAUUGCUCAGAUACCAGACAUGAGCAUCAGCCAUGUACCAAGAAAGUACAAUAAAAUGUCCCUUGGCAGCUGAGCAAUGUCU [TheoBX 8] | 47.8 nM
AAUUUUAAUCAUAAAUAAUAAAUAAAUGAUACCAGUAUUUUUUUUUACCCUUGGCAGCGUAUAUAAGGGCAGUGAUGUUGUCAGA [whbob_SS_Theo_A_w60] | 257 nM
UGAUACCAGACUGAUACCAGCCAGUGAUGUUGGCUAAGCCAAAUAGGUGUCAAAGACACCGGCCCUUGGCAGCAGUCUGGUAUCU [TheoBX 2 #SwitchBubble #StaticStem] | 126 nM
GGAGUUACCUGGGAUACCAGUCGGAGACCCAGAGCUCGGAGUGAUGUUCUGGGAUGUUUCGGCCCUUGGCAGCUCUGGGUCUCCC [#2 Exclusion - Theophylline B Attempt #8 (HarryS)] | 723 nM
GAAUGAUAGUAAGGAUAUAGAUAAUCCUUAUAUAUAUCGAGUGAUGUUCGAUGUGGCAAGAUACAUCUAGAAGGUACUGUAAGGU [Same State FMN B GF 16] | 361 nM
CUCCUUGGCUAAGGAUAUCGUAGUGAUGUUAUGGUCUUUGCUAAGACUUCUGAUAUUGAAUUCCGACGAGAAGGUAGAAGGACGG [theeternabot_exclusion_KL_FMN_B_18] | 835 nM
UCUGUUGUAUAUGAUACCAGCAGUGAGAGAUGAGAAGUAUAGUGAUGUUAUAUGAGAGAAUGCCCUUGGCAGCGUGUGCGUGUGG [SSTheophylB.aC] | 83.2 nM
CGCCGUAAGGCGAGCGCUCCCACUCCGGAAGGAGCGCCCGAAAGGGCAGGUAGGUCGCCGGAGUGAUGUUCCGGUGGAGGGCUCG [#2 Exclusion - Arginine A Attempt #28 (Inspired by Omei)] | 380 nM
UCACUCAUGUGAAGGAGCGUGAGAAGACAUGAGUGAUGUUCAUGUCUAGACCAGCGUCUCUCACAGGUAGGUCGCACAUGAAAGG [Arg B SS t10] | 121 nM
AAAAUUGCGGUCGAUAGAACUUUUUGCUUACGAGGACCGGUACGGCCGCCACUCGAGUCAAGUGAUGUUUGAUUUUCUAUUAUUA [JR_ExcTryptoA_Sub014] | 141 nM
UUUAACGAGUGAUGUUCGAAAAGUAAUGGUGAGGAUAUCGAUUUUUCGAGAAGGCACCUCGAAGUGAUACGAAAGUAUCGCUUCG [FMN A 4] | 261 nM
CCUUUCUGUUACGAUACCAGUCUAAUAUAUUUGAUCAAUACCCUCGCCGAGUGAUGUUCGGACCCUUGGCAGCGUCUGGGACAGG [aazwmullin] | 493 nM
GGAGGAGAAUAUGAUACCAGCAGAGAGAGAGAGGAAGUAUAGUGAUGUUAUAUGUGAGAAUGCCCUUGGCAGCAUAAGAAGAAGG [whbob_SS_Theo_B_sa87] | 156 nM
CAUAGACAAGUGAUGUUUGUCAUAACCGAAGGAGCGUCUUUAAAGACAGGUAGGUCGCGGAUUAAUUAAGUUAUUAUUCUUUUUA [JR_SSArginiA_Sub018] | 644 nM
UAGUCAUACAGAGGAUAUCGUAUGAGUGAUGUUCAUACGACAUAAUCAAAUUGUAUUGAUGUUCGACGAGAAGGCUGUAUGACUA [FMN B Ex t1] | 124 nM
GUGUAACGAGGAAACCUCGUUACACCCUCACGAGGACCGGUACGGCCGCCACUCGAGAGCUCGUGAGGAGUGAUGUUCCUCGUGA | 441 nM
GGGAGUAGUGCGGCCGCCACUGAGAAAGAAGAAGAAUAUAGUGAUGUUAUAUAGGAAAGGAAGAAUAGGACCGGGCAUUAGAUUU [SSTRyptB.J] | 263 nM
CCGGCCCAGCCGGAUACCAGUGCGCCGCAGGGAACGGCGGGCCCAGAGUGAUGUUCGGGACACCCUUGGCAGCCGCCUGGGUCCU [#2 Same State - Theophylline B Attempt #29 (HarryS)] | 718 nM
GCUAUGGUUGGAAGGAGCGUUGAAUUGUUGGUAAGAGUGAUGUUCGAUAGUGGAUAGUUGUAGCAGGUAGGUCGCCAACUAUAGC [KL-Arg B27] | 532 nM
ACAGUCGGCUGUGAUACCAGUCGUAUUACAACAUGUUGCAGUGAUGUUGCGAGAUAGGAUGACCCUUGGCAGCACUCAGUACGAU [Same State Theophylline B GF9] | 173 nM
